The record followed here is doi:10.1101/2021.04.14.439868.

The target of one data set is T1, LuxR (Vibrio campbellii BB120, UniProt P21308 1-205).
T1 sequence: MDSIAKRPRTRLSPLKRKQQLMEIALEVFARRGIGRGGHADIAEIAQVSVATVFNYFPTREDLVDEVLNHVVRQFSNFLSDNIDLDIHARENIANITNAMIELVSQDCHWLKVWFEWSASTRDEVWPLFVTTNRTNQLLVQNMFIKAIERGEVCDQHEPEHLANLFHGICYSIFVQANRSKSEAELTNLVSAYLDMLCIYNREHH
As to the kind of experiment: EMSA.

The target in the next data set is T2, SmcR (Vibrio vulnificus ATCC 27562, UniProt Q9L8G8 1-205).
T2 sequence: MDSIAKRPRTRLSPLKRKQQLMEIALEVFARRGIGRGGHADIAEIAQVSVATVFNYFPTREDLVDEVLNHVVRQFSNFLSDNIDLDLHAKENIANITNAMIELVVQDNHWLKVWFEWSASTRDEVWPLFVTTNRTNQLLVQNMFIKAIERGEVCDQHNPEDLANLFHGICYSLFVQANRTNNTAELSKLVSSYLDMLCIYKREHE
As to the kind of experiment: EMSA. (In general: Mobility shift assays separate free from complexed probe on a gel.)

B1: luxC promoter site B (JDN54/JDN55) (dsDNA)
DNA 1: TTACTTATTTATAGTGTTACAAATAACATTA
DNA 2: TAATGTTATTTGTAACACTATAAATAAGTAA
Take B1: the binding result in the data set with LuxR is “binds”.

B2: vvpE promoter (AB324/AB325) (dsDNA)
DNA 1: ATAAATCAAATTTGTAACTTTATTTCTGAGATGACTGTCCCATTTATCTTATTGATAAATCTGCGTAAAAAAGAAAAAGCACAATTTTATTACTAGTGTTT
DNA 2: AAACACTAGTAATAAAATTGTGCTTTTTCTTTTTTACGCAGATTTATCAATAAGATAAATGGGACAGTCATCTCAGAAATAAAGTTACAAATTTGATTTAT
As to B2, the binding result in the data set with SmcR is reported as “binds”.
